# Measurements: the supplement of paper PMC7877785
# ± gives the uncertainty stated by the source.
# Assay: self-splicing fitness, log relative to wild type (ln ratio); higher = more splicing; Tetrahymena group I intron in knt gene, E. coli kanamycin selection, DiMSum; sequences stand for … in CUCUCU…GGAGGGAAAAGUUAUCAGGCAUGCACCUGGUAGCUAGUCUUUAAACCAAUAGAUUGCAUCGGUUUAAAAGGCAAGACCGUCAAAUUGCGGGAAAGGGGUCAACAGCCGUUCAGUACCAAGUCUCAGGGGAAACUUUGAGAUGGCCUUGCAAAGGGUAUGGUAAUAAGCUGACGGACAUGGUCCUAACCACGCAGCCAAGUCCUAAGUCAACAGAUCUUCUGUUGAUAUGGAUGCAGUUCACAGACUAAAUGUCGGUCGGGGAAGAUGUAUUCUUCUCAUAAGAUAUAGUCGGACCUCUCCUUAAUGGGAGCUAGCGGAUGAAGUGAUGCAACACUGGAGCCGCUGGGAACUAAUUUGUAUGCGAAAGUAUAUUGAUUAGUUUUGGAGUACUCGUGGUCG
# In short: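 DiMSum derived fitness as the error-weighted combination of fold changes across replicates, kanamycin versus no kanamycin, normalised to wild type. E. coli BL21(DE3) held the library, which randomised all eight P1ex-region intron nucleotides within the knt kanamycin-resistance gene on pET-22b(+). Six replicate transformations grew overnight at 37°C or 30°C on LB agar with or without 25 μg/mL kanamycin, also containing 100 μg/mL carbenicillin, 50 μM IPTG and 0.2% rhamnose, and pooled colonies were amplicon-sequenced on an Illumina HiSeq 2500.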
Sequence,self-splicing fitness (ln) (30 °C),self-splicing fitness (ln) (37 °C)
UAUGAGCAAUAUUACGGGUA,-1.86 ± 0.14,-2.05 ± 0.14
ACAGAGCAAUAUUACGAGAC,-3.23 ± 0.37,-2.67 ± 0.31
GGCAAGCAAUAUUACGGAUU,-0.462 ± 0.11,-0.427 ± 0.13
UCAGAGCAAUAUUACGUUGU,-3.38 ± 0.2,-3.51 ± 0.35
UCAAAGCAAUAUUACGACUA,-1.14 ± 0.098,-1.03 ± 0.1
CAUCAGCAAUAUUACGCUAA,-2.1 ± 0.17,-1.69 ± 0.16
UACAAGCAAUAUUACGACGC,-2.93 ± 0.25,-1.67 ± 0.23
ACAAAGCAAUAUUACGCUCC,-1.29 ± 0.16,-0.526 ± 0.17
ACCGAGCAAUAUUACGAGUU,-3.25 ± 0.14,-2.87 ± 0.15
UCGCAGCAAUAUUACGACAA,-1.14 ± 0.19,-1.48 ± 0.2
UGUUAGCAAUAUUACGCCGG,-0.866 ± 0.13,-0.696 ± 0.19
ACUGAGCAAUAUUACGUACU,-2.16 ± 0.19,-1.42 ± 0.19
GAGAAGCAAUAUUACGUCGA,-1.54 ± 0.13,-1.09 ± 0.14
UAUUAGCAAUAUUACGUCUC,-2.7 ± 0.35,-1.5 ± 0.22
GACUAGCAAUAUUACGGCCA,-0.241 ± 0.16,-0.327 ± 0.26
GUUUAGCAAUAUUACGCCUC,0.228 ± 0.22,-0.7 ± 0.23
AGUGAGCAAUAUUACGGCUC,-4.11 ± 0.26,-2.03 ± 0.2
CGCAAGCAAUAUUACGUCAA,-3.1 ± 0.12,-2.93 ± 0.14
UUGGAGCAAUAUUACGAUAA,-2.08 ± 0.26,0.881 ± 0.28
AUACAGCAAUAUUACGAAUC,-4.08 ± 0.25,-2.3 ± 0.18
CUGAAGCAAUAUUACGAUCG,0.00255 ± 0.12,-0.0487 ± 0.13
GGCGAGCAAUAUUACGAUCA,-1.18 ± 0.17,-0.735 ± 0.18
AGUCAGCAAUAUUACGCUCC,-0.39 ± 0.17,-0.919 ± 0.16
AAAUAGCAAUAUUACGAUUU,-0.479 ± 0.061,-0.0855 ± 0.081
CAUAAGCAAUAUUACGAAAU,-3.7 ± 0.2,-2.68 ± 0.22
UUGCAGCAAUAUUACGGACA,-0.355 ± 0.074,-0.669 ± 0.091

Sequence,self-splicing fitness (ln) (30 °C),self-splicing fitness (ln) (37 °C)
GGUAAGCAAUAUUACGAGAU,-2.94 ± 0.25,-1.2 ± 0.16
UUUCAGCAAUAUUACGUAUC,-1.71 ± 0.14,-1.5 ± 0.14
UGCUAGCAAUAUUACGUGGA,-3 ± 0.19,-2.44 ± 0.15
AGAAAGCAAUAUUACGAACU,-0.0259 ± 0.096,0.00874 ± 0.12
UCACAGCAAUAUUACGCCUC,-2.06 ± 0.35,
GUAUAGCAAUAUUACGCAAA,-3.07 ± 0.29,-1.7 ± 0.25
CUAAAGCAAUAUUACGAAAG,0.0922 ± 0.092,0.21 ± 0.12
UAGGAGCAAUAUUACGCGUG,-2.31 ± 0.12,-0.579 ± 0.12
GGGCAGCAAUAUUACGAGCU,-2.69 ± 0.22,0.481 ± 0.13
CGACAGCAAUAUUACGACCU,-1.56 ± 0.099,0.317 ± 0.11
ACAAAGCAAUAUUACGACAU,-0.488 ± 0.011,0.0402 ± 0.032
GCUCAGCAAUAUUACGCGAG,-2.78 ± 0.13,-2.18 ± 0.17
UUACAGCAAUAUUACGUGGA,-1.88 ± 0.095,-1.41 ± 0.094
AAGGAGCAAUAUUACGCGAU,-2.06 ± 0.15,-2.29 ± 0.28
ACCAAGCAAUAUUACGUGUA,-2.28 ± 0.09,-1.37 ± 0.096
CUUCAGCAAUAUUACGCAUU,-3.11 ± 0.19,-2.28 ± 0.2
CCGCAGCAAUAUUACGCAUA,-3.34 ± 0.19,-2.31 ± 0.17
CAUAAGCAAUAUUACGGAGA,,-3.12 ± 0.38
AUCUAGCAAUAUUACGACCC,-0.615 ± 0.21,0.543 ± 0.31
UCGUAGCAAUAUUACGAACU,-3.21 ± 0.38,-2.63 ± 0.33
CCUAAGCAAUAUUACGCGGG,-3.96 ± 0.21,-2.68 ± 0.21
CCUUAGCAAUAUUACGACUC,-3.05 ± 0.15,-2.49 ± 0.2
CAGAAGCAAUAUUACGCGUA,-2.63 ± 0.27,-1.69 ± 0.15
UGUGAGCAAUAUUACGGGGU,-3.98 ± 0.21,-2.75 ± 0.28
UUCAAGCAAUAUUACGAUCA,-0.845 ± 0.082,-0.189 ± 0.093
GUGUAGCAAUAUUACGUAAU,-1.75 ± 0.12,-0.371 ± 0.12

Sequence,self-splicing fitness (ln) (30 °C),self-splicing fitness (ln) (37 °C)
ACUUAGCAAUAUUACGGUGG,-3.72 ± 0.3,
UAAAAGCAAUAUUACGUGGA,-2.94 ± 0.13,-1.52 ± 0.1
GGCAAGCAAUAUUACGUGCG,-1.57 ± 0.1,-0.197 ± 0.099
UAUUAGCAAUAUUACGCCUU,-0.78 ± 0.27,-0.885 ± 0.36
AUAUAGCAAUAUUACGGAUC,-1.55 ± 0.2,0.109 ± 0.26
UGUAAGCAAUAUUACGAUCG,0.587 ± 0.097,-0.129 ± 0.11
CUAAAGCAAUAUUACGUGGG,-2.9 ± 0.11,-1.09 ± 0.092
UUCCAGCAAUAUUACGGAGU,-4.4 ± 0.42,
AAUAAGCAAUAUUACGUUCU,-0.338 ± 0.077,0.0226 ± 0.11
GCGGAGCAAUAUUACGGACC,-1.77 ± 0.34,
CUAUAGCAAUAUUACGAGGU,-4.07 ± 0.42,-3.28 ± 0.42
CGCUAGCAAUAUUACGUACC,-1.89 ± 0.27,-0.55 ± 0.2
UAGGAGCAAUAUUACGUGCU,-3.16 ± 0.34,-1.05 ± 0.23
GGAUAGCAAUAUUACGUGCU,-1.26 ± 0.085,-1.21 ± 0.12
AACAAGCAAUAUUACGGAAG,-3.98 ± 0.18,-2.74 ± 0.15
CUGCAGCAAUAUUACGCGCU,-2.68 ± 0.2,-2.27 ± 0.22
GACCAGCAAUAUUACGAAUU,-0.37 ± 0.073,-0.374 ± 0.1
UCCGAGCAAUAUUACGUCAG,-3.62 ± 0.24,-1.07 ± 0.17
AUGCAGCAAUAUUACGUCAA,-2.35 ± 0.19,-0.997 ± 0.14
UAGUAGCAAUAUUACGCCCG,-0.0603 ± 0.35,0.255 ± 0.44
GAUGAGCAAUAUUACGCCAA,-2.45 ± 0.26,-2.61 ± 0.29
UAUAAGCAAUAUUACGACGC,-3.44 ± 0.23,-1.19 ± 0.17
CAAAAGCAAUAUUACGUGAU,-3.62 ± 0.11,-2.41 ± 0.12
AUUGAGCAAUAUUACGCGCG,-3.04 ± 0.21,-2.22 ± 0.16
AUAUAGCAAUAUUACGAUUC,-1.29 ± 0.19,-0.0451 ± 0.23
